Laboratory results as given in patent US20260240959A1, “METHODS FOR IN VIVO EDITING OF KLKB1” (INTELLIA THERAPEUTICS, INC., priority 2022, published 2026).
In the oligonucleotide strings, read from the 5' end, every base follows the letter of its sugar. An asterisk marks phosphorothioate; unmarked linkages are phosphodiester. Other units and linkages are bracketed, terminal groups are in braces. A string of capitals states the bases alone. m = 2'-O-methyl; r = 2'-OH (RNA)

System: plasma kallikrein
Assay: Plasma kallikrein activity in cynomolgus monkeys
Format: in vivo, cynomolgus monkey
Details: n=3
Protocol: Cynomolgus monkeys were treated in cohorts of n=3. This study was conducted with LNP formulations according to Example 1. […]. Animals were dosed at 1.5, 3, or 6 mg per kg doses based on total RNA cargo. Indel formation (percent editing) was measured by NGS. Total kallikrein activity and plasma kallikrein protein level were measured as described above. […]

B1: G013901: cynomolgus specific KLKB1 guide RNA (SEQ ID NO: 409); dosed as LNP formulation with Cas9 mRNA (nucleic acid)
guide: mG*mG*mA*rUrUrArCrArUrArUrGrGrGrArCrArCrArArGrUrUrUrUrArGrAmGmCmUmAmGmAmAmAmUmAmGmCrArArGrUrUrArArArArUrArArGrGrCrUrArGrUrCrCrGrUrUrArUrCrAmAmCmUmUmGmAmAmAmAmAmGmUmGmGmCmAmCmCmGmAmGmUmCmGmGmUmGmCmU*mU*mU*mU
For B1, the “Kallikrein Activity (% of basal activity), Mean” value (1.5 mpk, Day 14) was 31.1 % of basal activity, the “Kallikrein Activity (% of basal activity), Mean” value (1.5 mpk, Day 28) was 26.8 % of basal activity and the “Kallikrein Activity (% of basal activity), Mean” value (1.5 mpk, Day 42) was 19.8 % of basal activity. The “Kallikrein Activity (% of basal activity), Mean” value (1.5 mpk, Day 56) was 8.8 % of basal activity, the “Kallikrein Activity (% of basal activity), Mean” value (1.5 mpk, Day 70) was 6 % of basal activity and the “Kallikrein Activity (% of basal activity), Mean” value (1.5 mpk, Day 84) was 10.6 % of basal activity. For the same molecule, the “Kallikrein Activity (% of basal activity), Mean” value (1.5 mpk, Day 105) was 23.3 % of basal activity, the “Kallikrein Activity (% of basal activity), Mean” value (1.5 mpk, Day 119) was 12.2 % of basal activity and the “Kallikrein Activity (% of basal activity), Mean” value (1.5 mpk, Day 147) was 11.9 % of basal activity. For the same molecule, the “Kallikrein Activity (% of basal activity), Mean” value (1.5 mpk, Day 161) was 21 % of basal activity, the “Kallikrein Activity (% of basal activity), Mean” value (1.5 mpk, Day 180) was 19.2 % of basal activity and the “Kallikrein Activity (% of basal activity), Mean” value (1.5 mpk, Day 238) was 16.6 % of basal activity. The “Kallikrein Activity (% of basal activity), Mean” value (1.5 mpk, Day 252) was 19.1 % of basal activity, the “Kallikrein Activity (% of basal activity), Mean” value (1.5 mpk, Day 266) was 13.9 % of basal activity and the “Kallikrein Activity (% of basal activity), Mean” value (1.5 mpk, Day 280) was 17.5 % of basal activity. The “Kallikrein Activity (% of basal activity), Mean” value (1.5 mpk, Day 294) was 17 % of basal activity, the “Kallikrein Activity (% of basal activity), Mean” value (1.5 mpk, Day 308) was 18.2 % of basal activity and the “Kallikrein Activity (% of basal activity), Mean” value (1.5 mpk, Day 326) was 13.3 % of basal activity. The “Kallikrein Activity (% of basal activity), Mean” value (1.5 mpk, Day 333) was 15.9 % of basal activity, the “Kallikrein Activity (% of basal activity), Mean” value (1.5 mpk, Day 347) was 16.9 % of basal activity and the “Kallikrein Activity (% of basal activity), Mean” value (1.5 mpk, Day 365) was 24.1 % of basal activity. The “Kallikrein Activity (% of basal activity), Mean” value (3 mpk, Day 7) was 42.8 % of basal activity, the “Kallikrein Activity (% of basal activity), Mean” value (3 mpk, Day 14) was 15.9 % of basal activity and the “Kallikrein Activity (% of basal activity), Mean” value (3 mpk, Day 28) was 10.6 % of basal activity. For the same molecule, the “Kallikrein Activity (% of basal activity), Mean” value (3 mpk, Day 42) was 8.6 % of basal activity, the “Kallikrein Activity (% of basal activity), Mean” value (3 mpk, Day 56) was 3.4 % of basal activity and the “Kallikrein Activity (% of basal activity), Mean” value (3 mpk, Day 70) was 3 % of basal activity. For the same molecule, the “Kallikrein Activity (% of basal activity), Mean” value (3 mpk, Day 84) was 4.2 % of basal activity, the “Kallikrein Activity (% of basal activity), Mean” value (3 mpk, Day 105) was 6 % of basal activity and the “Kallikrein Activity (% of basal activity), Mean” value (3 mpk, Day 119) was 3.4 % of basal activity. The “Kallikrein Activity (% of basal activity), Mean” value (3 mpk, Day 147) was 4.5 % of basal activity, the “Kallikrein Activity (% of basal activity), Mean” value (3 mpk, Day 161) was 6 % of basal activity and the “Kallikrein Activity (% of basal activity), Mean” value (3 mpk, Day 180) was 4.7 % of basal activity. The “Kallikrein Activity (% of basal activity), Mean” value (3 mpk, Day 238) was 4.7 % of basal activity, the “Kallikrein Activity (% of basal activity), Mean” value (3 mpk, Day 252) was 8.2 % of basal activity and the “Kallikrein Activity (% of basal activity), Mean” value (3 mpk, Day 266) was 8.9 % of basal activity. The “Kallikrein Activity (% of basal activity), Mean” value (3 mpk, Day 280) was 6.8 % of basal activity, the “Kallikrein Activity (% of basal activity), Mean” value (3 mpk, Day 294) was 7.9 % of basal activity and the “Kallikrein Activity (% of basal activity), Mean” value (3 mpk, Day 308) was 7.4 % of basal activity. For the same molecule, the “Kallikrein Activity (% of basal activity), Mean” value (3 mpk, Day 326) was 5.5 % of basal activity, the “Kallikrein Activity (% of basal activity), Mean” value (3 mpk, Day 333) was 6.8 % of basal activity and the “Kallikrein Activity (% of basal activity), Mean” value (3 mpk, Day 347) was 4.1 % of basal activity. The “Kallikrein Activity (% of basal activity), Mean” value (3 mpk, Day 365) was 10 % of basal activity, the “Kallikrein Activity (% of basal activity), Mean” value (6 mpk, Day 7) was 18.2 % of basal activity and the “Kallikrein Activity (% of basal activity), Mean” value (6 mpk, Day 14) was 5.3 % of basal activity. For the same molecule, the “Kallikrein Activity (% of basal activity), Mean” value (6 mpk, Day 28) was 3.9 % of basal activity, the “Kallikrein Activity (% of basal activity), Mean” value (6 mpk, Day 42) was 3.6 % of basal activity and the “Kallikrein Activity (% of basal activity), Mean” value (6 mpk, Day 56) was 4.2 % of basal activity. The “Kallikrein Activity (% of basal activity), Mean” value (6 mpk, Day 70) was 3.9 % of basal activity, the “Kallikrein Activity (% of basal activity), Mean” value (6 mpk, Day 84) was 4.7 % of basal activity and the “Kallikrein Activity (% of basal activity), Mean” value (6 mpk, Day 105) was 4.7 % of basal activity. The “Kallikrein Activity (% of basal activity), Mean” value (6 mpk, Day 119) was 3 % of basal activity, the “Kallikrein Activity (% of basal activity), Mean” value (6 mpk, Day 147) was 3 % of basal activity and the “Kallikrein Activity (% of basal activity), Mean” value (6 mpk, Day 161) was 5.6 % of basal activity. For the same molecule, the “Kallikrein Activity (% of basal activity), Mean” value (6 mpk, Day 180) was 5 % of basal activity, the “Kallikrein Activity (% of basal activity), Mean” value (6 mpk, Day 238) was 3.2 % of basal activity and the “Kallikrein Activity (% of basal activity), Mean” value (6 mpk, Day 252) was 3.1 % of basal activity. For the same molecule, the “Kallikrein Activity (% of basal activity), Mean” value (6 mpk, Day 266) was 2.7 % of basal activity, the “Kallikrein Activity (% of basal activity), Mean” value (6 mpk, Day 280) was 3 % of basal activity and the “Kallikrein Activity (% of basal activity), Mean” value (6 mpk, Day 294) was 2.9 % of basal activity. For the same molecule, the “Kallikrein Activity (% of basal activity), Mean” value (6 mpk, Day 308) was 3 % of basal activity, the “Kallikrein Activity (% of basal activity), Mean” value (6 mpk, Day 326) was 3.5 % of basal activity and the “Kallikrein Activity (% of basal activity), Mean” value (6 mpk, Day 333) was 3.3 % of basal activity. For the same molecule, the “Kallikrein Activity (% of basal activity), Mean” value (6 mpk, Day 347) was 2.9 % of basal activity and the “Kallikrein Activity (% of basal activity), Mean” value (6 mpk, Day 365) was 3.4 % of basal activity.
